To fix the notation:
B1: αSynP130-140 (peptide)
peptide: EEGYQDYEPEA
notes: also called α-synuclein decoy peptide; C-terminal peptide of αSyn; source: synthetic peptide (SCRUM Inc or BEX Co Ltd)
B2: αSynP130-140 Y133F/Y136W (peptide)
peptide: EEGFQDWEPEA
notes: source: synthetic peptide (SCRUM Inc or BEX Co Ltd)
B3: αSynP130-140 Y136F (peptide)
peptide: EEGYQDFEPEA
notes: as for B2
B4: αSynP130-140 Y133F (peptide)
peptide: EEGFQDYEPEA
notes: as for B2
B5: αSynP130-140 Y133F/Y136F (peptide)
peptide: EEGFQDFEPEA
notes: as for B2
B6: αSynP130-140 Y133W/Y136W (peptide)
peptide: EEGWQDWEPEA
notes: as for B2
B7: αSynP130-140 Y136W (peptide)
peptide: EEGYQDWEPEA
notes: as for B2

Results on seven molecules are retold here after publication PMC8131325 (The Journal of Biological Chemistry, 2021).

T1 sequence (P05413 whole entry): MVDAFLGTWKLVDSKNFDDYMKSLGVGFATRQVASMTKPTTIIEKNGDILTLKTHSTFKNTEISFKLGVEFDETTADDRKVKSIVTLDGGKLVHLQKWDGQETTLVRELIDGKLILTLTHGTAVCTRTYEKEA

One assay concerns the target T1, fatty acid binding protein 3 (UniProt P05413 1-133).
T1 construct: synthetic gene (Invitrogen GeneArt) in pET28a between NcoI and XhoI; Untagged FABP3; also called FABP3; H-FABP; source: E. coli BLR(DE3), purified (Resource-Q anion exchange column), delipidized, lyophilized
The assay can be described thus: other fluorescence titration; ANS fluorescence (5 μM ANS, emission at 460 nm) of 2 μM FABP3 with increasing concentrations of αSyn or αSynP130-140; 50 mM Tris-HCl pH 7.4. Conditions: both partners purified.
In the case of B1, the “stoichiometry N” value was roughly 1.

The target of the next assay is T2, FABP3 with N-terminal His6 tag (UniProt P05413 1-133).
T2 construct: synthetic gene (Invitrogen GeneArt) in pET28a between NdeI and XhoI; Apo (delipidized) form; held on the Ni-NTA quartz sensor by the His6 tag; also called His6-FABP3; not shown: His6, N-terminal, kept
T2 sequence (P05413 whole entry): as above
The assay can be described thus: quartz crystal microbalance (QCM); His6-FABP3 (or FABP3 F16S) immobilised on the gold-plated quartz sensor through Ni-NTA groups; αSyn, its variants or peptides added at varying concentrations; room temperature; 50 mM Tris-HCl pH 7.4; kobs = koff + kon[αSyn], Kd from kon and koff (AQUA 2.0). The settings on record: both partners purified.
Take B1: the equilibrium dissociation constant (Kd) worked out at 6.1 nM, the koff was 0.0012 s⁻¹ and the kon turned out to be 200000 M⁻¹ s⁻¹.

Take B2: the Kd is 6.1 nM, the koff came out at 0.0019 s⁻¹ and the kon stood at 320000 M⁻¹ s⁻¹.

On to B3, for which the dissociation constant Kd was 7.7 nM, the koff is 0.0037 s⁻¹ and the kon came out at 480000 M⁻¹ s⁻¹.

For B4, the dissociation constant (Kd) is 2 nM, the koff was found to be 0.0015 s⁻¹ and the on-rate constant (kon) came to 750000 M⁻¹ s⁻¹.

With B5, the Kd amounted to 2.1 nM, the koff was determined as 0.0011 s⁻¹ and the kon was found to be 540000 M⁻¹ s⁻¹.

For the molecule B6, the Kd was determined as 6.2 nM, the koff was 0.0015 s⁻¹ and the kon came to 240000 M⁻¹ s⁻¹.

B7: the Kd was found to be 6.3 nM, the koff is 0.0024 s⁻¹ and the kon came out at 380000 M⁻¹ s⁻¹.

For orientation: stoichiometry N means the number of molecules, sites or subunits per partner or assembly. What is called Kd is the constant that tells how readily two partners part at equilibrium. Usually koff stands for a measure of how fast the partners let go of each other. One may read the kon as the second-order rate constant of association.
